Publication PMC6150654

Target: Human PTH1 receptor with a His-tag (human) (UniProt Q03431)
Assay: QCM biosensor; PTH1R amine coupled to an LNB-carboxyl chip (Attana Cell 200); PTH injected at 4-20 ug/mL, 35 uL, 25 uL/min, dissociation 510 s; 20 °C; 10 mM HEPES, 150 mM NaCl, 0.005% Tween-20, pH 7.4; rate constant distributions (AIDA) and two-site model fitted to the sensorgrams one by one

UniProt Q03431, sequence (Q03431 27-593): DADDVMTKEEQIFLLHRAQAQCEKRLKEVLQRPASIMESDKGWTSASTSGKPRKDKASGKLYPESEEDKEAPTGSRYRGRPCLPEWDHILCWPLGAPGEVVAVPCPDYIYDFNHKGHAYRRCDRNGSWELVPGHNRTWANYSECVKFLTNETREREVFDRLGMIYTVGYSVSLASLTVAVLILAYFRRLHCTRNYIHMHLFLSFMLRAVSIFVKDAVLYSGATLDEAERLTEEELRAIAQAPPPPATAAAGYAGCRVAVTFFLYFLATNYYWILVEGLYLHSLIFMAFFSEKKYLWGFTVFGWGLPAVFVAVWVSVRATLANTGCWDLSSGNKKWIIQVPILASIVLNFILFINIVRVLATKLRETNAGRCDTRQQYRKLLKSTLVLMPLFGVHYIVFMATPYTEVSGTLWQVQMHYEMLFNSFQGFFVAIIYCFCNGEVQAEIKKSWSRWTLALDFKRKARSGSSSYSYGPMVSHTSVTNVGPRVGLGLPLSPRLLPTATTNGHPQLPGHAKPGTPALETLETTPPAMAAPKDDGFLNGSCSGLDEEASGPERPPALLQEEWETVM

parathyroid hormone (1-34) (peptide)
log10(ka), both distributions of the RCD (4129 nM injection): 4 | log10(ka), first cluster (two-site fit): 4.2 | log10(ka), second cluster (two-site fit): 3.7 | log10(kd), first cluster (two-site fit): -0.9 | log10(kd), one distribution of the RCD (4129 nM injection): -2 | log10(kd), other distribution of the RCD (4129 nM injection): -1 | log10(kd), second cluster (two-site fit): -2.3
